According to patent US20200317768A1 (published 2020):

B1: M103205H795-MY201 / M103202L889-SK1 (antibody, human IgG1, kappa)
heavy: QVTLKESGPVLVKPTETLTLTCTVSGIDLSHDDISWVRQAPGKGLEWVGIISYAGSTYYASWAKGRLTISKDTSKNQVVLTMTNMDPVDTATYYCARGVPAYSHGGDLWGQGTLVTVSSASTKGPSVFPLAPSSKSTSGGTAALGCLVKDYFPEPVTVSWNSGALTSGVHTFPAVLQSSGLYSLSSVVTVPSSSLGTQTYICNVNHKPSNTKVDKKVEPKSCDKTHTCPPCPAPELLNGPSVFLFPPKPKDTLMISRTPEVTCVVVDVSDEDPEVKFNWYVDGVEVHNAKTKPREEQYNSTYRVVSVLTVLHQDWLNGKEYKCKVSNKALPKPIEKTISKAKGQPREPQVYTLPPSREEMTKNQVSLTCLVKGFYPSDIAVEWESNGQPENNYKTTPPVLDSDGSFFLYSKLTVDKSRWQQGNVFSCSVMHEALHNHYTQKSLSLSP
light: DIVMTQSPATLSLSPGERATLSCTSSQSVYHANWLSWFQQKPGQPPKLLIYWASTLAYGVPSRFSGSGSGTDFTLTISSLQPEDAATYYCAGGYGGGRYAFGQGTKVEIKRTVAAPSVFIFPPSDEQLKSGTASVVCLLNNFYPREAKVQWKVDNALQSGNSQESVTEQDSKDSTYSLSSTLTLSKADYEKHKVYACEVTHQGLSSPVTKSFNRGEC
notes: Fc variant of M103205H795-SG1, expressed with M103202L889-SK1 as light chain; also called MS1032LO06-MY201
B2: M103205H795-MY202 / M103202L889-SK1 (antibody, human IgG1, kappa)
heavy: QVTLKESGPVLVKPTETLTLTCTVSGIDLSHDDISWVRQAPGKGLEWVGIISYAGSTYYASWAKGRLTISKDTSKNQVVLTMTNMDPVDTATYYCARGVPAYSHGGDLWGQGTLVTVSSASTKGPSVFPLAPSSKSTSGGTAALGCLVKDYFPEPVTVSWNSGALTSGVHTFPAVLQSSGLYSLSSVVTVPSSSLGTQTYICNVNHKPSNTKVDKKVEPKSCDKTHTCPPCPAPELLNGPVVFLFPPKPKDTLMISRTPEVTCVVVDVSDEDPEVKFNWYVDGVEVHNAKTKPREEQYNSTYRVVSVLTVLHQDWLNGKEYKCKVSNKALPKPIEKTISKAKGQPREPQVYTLPPSREEMTKNQVSLTCLVKGFYPSDIAVEWESNGQPENNYKTTPPVLDSDGSFFLYSKLTVDKSRWQQGNVFSCSVMHEALHNHYTQKSLSLSP
light: DIVMTQSPATLSLSPGERATLSCTSSQSVYHANWLSWFQQKPGQPPKLLIYWASTLAYGVPSRFSGSGSGTDFTLTISSLQPEDAATYYCAGGYGGGRYAFGQGTKVEIKRTVAAPSVFIFPPSDEQLKSGTASVVCLLNNFYPREAKVQWKVDNALQSGNSQESVTEQDSKDSTYSLSSTLTLSKADYEKHKVYACEVTHQGLSSPVTKSFNRGEC
notes: Fc variant of M103205H795-SG1, expressed with M103202L889-SK1 as light chain
B3: M103205H795-MY204 / M103202L889-SK1 (antibody, human IgG1, kappa)
heavy: QVTLKESGPVLVKPTETLTLTCTVSGIDLSHDDISWVRQAPGKGLEWVGIISYAGSTYYASWAKGRLTISKDTSKNQVVLTMTNMDPVDTATYYCARGVPAYSHGGDLWGQGTLVTVSSASTKGPSVFPLAPSSKSTSGGTAALGCLVKDYFPEPVTVSWNSGALTSGVHTFPAVLQSSGLYSLSSVVTVPSSSLGTQTYICNVNHKPSNTKVDKKVEPKSCDKTHTCPPCPAPELLNGPVVFLFPPKPKDTLMISRTPEVTCVVVDVSEEDPEVKFNWYVDGVEVHNAKTKPREELYNSTYRVVSVLTVLHQDWLNGKEYKCKVSNKALPKPIEKTISKAKGQPREPQVYTLPPSREEMTKNQVSLTCLVKGFYPSDIAVEWESNGQPENNYKTTPPVLDSDGSFFLYSKLTVDKSRWQQGNVFSCSVMHEALHNHYTQKSLSLSP
light: DIVMTQSPATLSLSPGERATLSCTSSQSVYHANWLSWFQQKPGQPPKLLIYWASTLAYGVPSRFSGSGSGTDFTLTISSLQPEDAATYYCAGGYGGGRYAFGQGTKVEIKRTVAAPSVFIFPPSDEQLKSGTASVVCLLNNFYPREAKVQWKVDNALQSGNSQESVTEQDSKDSTYSLSSTLTLSKADYEKHKVYACEVTHQGLSSPVTKSFNRGEC
notes: as for B2

How the values were obtained:
Experiment in all cases: SPR (Biacore); KD of SG1 divided by KD of the variant for this FcgR;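 also: relative to parent M103205H795-SG1 carrying the SG1 human heavy chain constant region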
[1] = molecular target: T1, human FcγRIIaR extracellular domain with C-terminal His-tag (human, UniProt P12318 34-217)
T1 construct: Expressed in FreeStyle 293 cells and purified; also called human FcγRIIa (type R); FcgRIIaR; not shown: C-terminal His-tag
T1 chain: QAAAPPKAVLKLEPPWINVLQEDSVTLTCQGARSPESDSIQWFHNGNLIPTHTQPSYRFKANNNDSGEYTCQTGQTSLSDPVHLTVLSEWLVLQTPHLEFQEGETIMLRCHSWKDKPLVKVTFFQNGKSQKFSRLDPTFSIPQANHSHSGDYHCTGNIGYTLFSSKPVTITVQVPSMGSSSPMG
Procedure: (§1) Regarding such interactions, KD values were calculated using the following 1:1 binding model described in BIACORE® T100 Software Handbook BR1006-48 Edition AE.
(§2) The behavior of interacting molecules according to the 1:1 binding model on BIACORE® can be described by Equation 1: Req=C·R max/(KD+C)+RI, wherein, Req is a plot of steady-state binding levels to analyte concentration. C is concentration, RI is bulk refractive index contribution in the sample, and Rmax is analyte binding capacity of the surface. When this equation is rearranged, KD can be expressed as Equation 2: KD=C·Rmax/(Req−RI)−C. KD can be calculated by substituting the values of Rmax, RI, and C into Equation 1 or Equation 2. From the current measurement conditions, RI=0, C=2 μmol/L can be used.
(§3) The variants were expressed using M103202L889-SK1 as the light chain and their affinity was analyzed.

[2] = molecular target: T2, human FcγRIIaH extracellular domain with C-terminal His-tag (human, UniProt P12318 34-217)
T2 construct: Expressed in FreeStyle 293 cells and purified; also called human FcγRIIa (type H); FcgRIIaH; not shown: C-terminal His-tag
T2 sequence: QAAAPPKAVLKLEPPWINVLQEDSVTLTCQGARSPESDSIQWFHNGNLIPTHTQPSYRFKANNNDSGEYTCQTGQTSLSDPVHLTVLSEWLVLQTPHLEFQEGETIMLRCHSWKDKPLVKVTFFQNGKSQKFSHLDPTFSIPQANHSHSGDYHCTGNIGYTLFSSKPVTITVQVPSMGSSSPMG
Procedure: as §1, §2, §3

[3] = molecular target: T3, cynomolgus monkey FcγRIIa2 extracellular domain with C-terminal His-tag (cynomolgus monkey)
T3 construct: Expressed in FreeStyle 293 cells and purified; also called cyno FcγRIIa2; cynoFcgRIIa2; not shown: C-terminal His-tag
T3 chain: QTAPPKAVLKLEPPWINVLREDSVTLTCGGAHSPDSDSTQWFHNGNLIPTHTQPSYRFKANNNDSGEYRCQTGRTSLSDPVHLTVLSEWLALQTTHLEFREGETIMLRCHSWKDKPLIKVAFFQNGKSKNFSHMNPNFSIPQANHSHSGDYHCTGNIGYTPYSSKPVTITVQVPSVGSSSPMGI
Procedure: as §1, §2, §3

[4] = molecular target: T4, human FcγRIIIaV extracellular domain with C-terminal His-tag (human, UniProt P08637 17-208)
T4 construct: Expressed in FreeStyle 293 cells and purified; also called FcgRIIIaV; not shown: C-terminal His-tag
Procedure: as §1, §2, §3

[5] = molecular target: T5, cynomolgus monkey FcγRIIb extracellular domain with C-terminal His-tag (cynomolgus monkey)
T5 construct: Expressed in FreeStyle 293 cells and purified; also called cyno FcγRIIb; cynoFcγRIIb; not shown: C-terminal His-tag
T5 chain: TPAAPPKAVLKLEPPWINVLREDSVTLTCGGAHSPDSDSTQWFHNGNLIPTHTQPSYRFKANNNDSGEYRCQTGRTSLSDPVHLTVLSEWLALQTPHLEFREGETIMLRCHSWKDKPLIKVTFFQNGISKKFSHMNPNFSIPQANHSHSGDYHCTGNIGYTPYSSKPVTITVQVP
Procedure: as §1, §2, §3

[6] = molecular target: T6, human FcγRIIb extracellular domain with C-terminal His-tag (human, UniProt P31994 43-217)
T6 construct: Expressed in FreeStyle 293 cells and purified; also called humanFcgRIIb; not shown: C-terminal His-tag
T6 sequence: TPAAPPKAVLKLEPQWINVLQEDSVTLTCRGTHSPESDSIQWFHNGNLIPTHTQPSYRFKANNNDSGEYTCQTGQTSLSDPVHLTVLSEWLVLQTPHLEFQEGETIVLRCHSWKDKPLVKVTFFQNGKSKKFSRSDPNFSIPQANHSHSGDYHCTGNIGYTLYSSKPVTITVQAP
Procedure: as §1, §2, §3

[7] = molecular target: T7, cynomolgus monkey FcγRIIa3 extracellular domain with C-terminal His-tag (cynomolgus monkey)
T7 construct: Expressed in FreeStyle 293 cells and purified; also called cyno FcγRIIa3; cynoFcgRIIa3; not shown: C-terminal His-tag
T7 chain: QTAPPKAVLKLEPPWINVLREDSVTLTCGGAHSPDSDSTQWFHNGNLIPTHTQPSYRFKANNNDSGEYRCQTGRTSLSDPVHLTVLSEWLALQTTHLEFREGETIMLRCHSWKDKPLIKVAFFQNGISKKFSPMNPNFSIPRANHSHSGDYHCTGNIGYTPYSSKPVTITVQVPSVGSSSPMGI
Procedure: as §1, §2, §3

[8] = molecular target: T8, cynomolgus monkey FcγRIIa1 extracellular domain with C-terminal His-tag (cynomolgus monkey)
T8 construct: Expressed in FreeStyle 293 cells and purified; also called cyno FcγRIIa1; cynoFcgRIIa1; not shown: C-terminal His-tag
T8 chain: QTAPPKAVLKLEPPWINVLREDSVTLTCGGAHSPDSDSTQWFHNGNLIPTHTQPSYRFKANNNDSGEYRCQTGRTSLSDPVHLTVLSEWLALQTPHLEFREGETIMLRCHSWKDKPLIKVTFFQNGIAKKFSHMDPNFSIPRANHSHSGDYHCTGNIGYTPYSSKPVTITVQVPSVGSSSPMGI
Procedure: as §1, §2, §3

[9] = molecular target: T9, cynomolgus monkey FcγRIIIaS extracellular domain with C-terminal His-tag (cynomolgus monkey, UniProt Q8SPW2 21-206 at identity 1.00))
T9 construct: Expressed in FreeStyle 293 cells and purified; also called cyno FcγRIIIaS; cynoFcγRIIIaS; not shown: C-terminal His-tag
T9 chain: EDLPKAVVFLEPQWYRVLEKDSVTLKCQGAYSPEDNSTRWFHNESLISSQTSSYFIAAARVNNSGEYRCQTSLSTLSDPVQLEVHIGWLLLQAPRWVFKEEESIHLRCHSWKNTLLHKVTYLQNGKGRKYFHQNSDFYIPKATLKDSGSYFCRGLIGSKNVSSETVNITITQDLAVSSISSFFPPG
Procedure: as §1, §2, §3

T4 sequence (P08637 17-208 F176V): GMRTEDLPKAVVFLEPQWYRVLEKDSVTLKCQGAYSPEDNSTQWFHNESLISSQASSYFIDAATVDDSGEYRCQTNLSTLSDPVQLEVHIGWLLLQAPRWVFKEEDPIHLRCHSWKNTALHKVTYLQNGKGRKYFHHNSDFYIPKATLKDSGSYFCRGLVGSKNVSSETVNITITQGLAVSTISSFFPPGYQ

| Binder | KD fold (SG1 = 1) [1] | KD fold (SG1 = 1) [2] | KD fold (SG1 = 1) [3] | KD fold (SG1 = 1) [4] | KD fold (SG1 = 1) [5] | KD fold (SG1 = 1) [6] | KD fold (SG1 = 1) [7] | KD fold (SG1 = 1) [8] | KD fold (SG1 = 1) [9] |
| --- | --- | --- | --- | --- | --- | --- | --- | --- | --- |
| B1 | 0.6 fold | 0.8 fold | 8.6 fold | 0.05 fold | 4.3 fold | 4.2 fold | 4.4 fold | 2.3 fold | 0.06 fold |
| B2 | 0.9 fold | 0.6 fold | 8 fold | 0.09 fold | 3.9 fold | 6.5 fold | 7.7 fold | 5.3 fold | 0.09 fold |
| B3 | 0.4 fold | 0.5 fold | 3.6 fold | 0.07 fold | 3.2 fold | 3.5 fold | 8.8 fold | 2.5 fold | 0.1 fold |
